Test results as given in the PETadex activity labels (doi:10.3390/ijms25158120).

How the values were obtained:
[1] = substrate: PET; experiment: Proxy for plastic degradation [Released monomer concentration (HPLC/LC-MS) (TPA)]; conditions: pH 7
[2] = substrate: PET; experiment: Proxy for plastic degradation [Released monomer concentration (HPLC/LC-MS) (BHET)]; conditions: pH 7
[3] = substrate: BHET; experiment: Proxy for plastic degradation [Released monomer concentration (HPLC/LC-MS) (MHET)]; conditions: pH 7
[4] = substrate: PET; experiment: as above; conditions: pH 7
[5] = substrate: PET; experiment: Proxy for plastic degradation [Released monomer concentration (HPLC/LC-MS) (TPA+MHET+BHET)]; conditions: pH 7
[6] = substrate: PET; experiment: Proxy for plastic degradation [Released monomer concentration (HPLC/LC-MS) (TPA+MHET+BHET+Total aromatic products)]; conditions: pH 7, 0 h
[7] = substrate: p-NP-C4; conditions: pH 6; 70 °C
[8] = Melting temperature [DSF / Thermofluor]; conditions: pH 8.5
[9] = substrate: pNPB; experiment: Proxy for plastic degradation [Residual activity]; conditions: pH 7
[10] = substrate: pNPB; experiment: Proxy for plastic degradation [Relative activity]; conditions: pH 7
[11] = substrate: pNPB; experiment: Proxy for plastic degradation [Specific activity]
[12] = 30 °C, 0 h, part of the chain shown
[13] = 30 °C, 48 h, part of the chain shown
[14] = 30 °C, 72 h, part of the chain shown
[15] = 30 °C, 96 h, part of the chain shown

B1: unnamed (protein)
chain: MNFPRASRLMQAAVLGGLMAVSAAATAQTNPYARGPNPTAASLEASAGPFTVRSFTVSRPSGYGAGTVYYPTNAGGTVGAIAIVPGYTARQSSIKWWGPRLASHGFVVITIDTNSTLDQPSSRSSQQMAALRQVASLNGTSSSPIYGKVDTARMGVMGWSMGGGGSLISAANNPSLKAAAPQAPWDSSTNFSSVTVPTLIFACENDSIAPVNSSALPIYDSMSRNAKQFLEINGGSHSCANSGNSNQALIGKKGVAWMKRFMDNDTRYSTFACENPNSTRVSDFRTANCS
Proxy for plastic degradation [1, 12]: 0 µM | Proxy for plastic degradation [1, 13]: 60 µM | Proxy for plastic degradation [2, 12]: 0 µM | Proxy for plastic degradation [2, 14]: 26 µM | Proxy for plastic degradation [3, 12]: 0 µM | Proxy for plastic degradation ([3]; 30 °C, 20 h, part of the chain shown): 12 µM | Proxy for plastic degradation ([3]; 30 °C, 40 h, part of the chain shown): 19 µM | Proxy for plastic degradation ([3]; 30 °C, 60 h, part of the chain shown): 24 µM | Proxy for plastic degradation ([3]; 50 °C, 0 h, part of the chain shown): 0 µM | Proxy for plastic degradation ([3]; 50 °C, 40 h, part of the chain shown): 5.9 µM | Proxy for plastic degradation ([3]; 50 °C, 60 h, part of the chain shown): 5.6 µM | Proxy for plastic degradation ([3]; 70 °C, 0 h, part of the chain shown): 0 µM | Proxy for plastic degradation ([3]; 70 °C, 20 h, part of the chain shown): 2.3 µM | Proxy for plastic degradation ([3]; 70 °C, 40 h, part of the chain shown): 3 µM | Proxy for plastic degradation ([3]; 70 °C, 60 h, part of the chain shown): 1.85 µM | Proxy for plastic degradation ([3]; part of the chain shown): 4 µM | Proxy for plastic degradation [4, 12]: 0 µM | Proxy for plastic degradation [4, 13]: 505 µM | Proxy for plastic degradation [4, 15]: 460 µM | Proxy for plastic degradation [5, 12]: 0 µM | Proxy for plastic degradation ([5]; 30 °C, 24 h, part of the chain shown): 580 µM | Proxy for plastic degradation [5, 13]: 590 µM | Proxy for plastic degradation [5, 14]: 600 µM | Proxy for plastic degradation [5, 15]: 520 µM

B2: unnamed (protein)
chain: MQTNPYARGPNPTAASLEASAGPFTVRSFTVSRPSGYGAGTVYYPTNAGGTVGAIAIVPGYTARQSSIKWWGPRLASHGFVVITIDTNSTLDQPSSRSSQQMAALRQVASLNGTSSSPIYGKVDTARMGVMGWSMGGGGSLISAANNPSLKAAAPQAPWDSSTNFSSVTVPTLIFACENDSIAPVNSSALPIYDSMSRNAKQFLEINGGSHSCANSGNSNQALIGKKGVAWMKRFMDNDTRYSTFACENPNSTRVSDFRTANCSLEHHHHHH
Proxy for plastic degradation ([3]; 30 °C, 0 h): 0 µM | Proxy for plastic degradation ([3]; 30 °C, 20 h): 12 µM | Proxy for plastic degradation ([3]; 30 °C, 40 h): 20 µM | Proxy for plastic degradation ([3]; 30 °C, 60 h): 25 µM | Proxy for plastic degradation ([3]; 50 °C, 0 h): 0 µM | Proxy for plastic degradation ([3]; 50 °C, 20 h): 5 µM | Proxy for plastic degradation ([3]; 50 °C, 40 h): 5.5 µM | Proxy for plastic degradation ([3]; 50 °C, 60 h): 5.5 µM | Proxy for plastic degradation ([3]; 70 °C, 0 h): 0 µM | Proxy for plastic degradation ([3]; 70 °C, 20 h): 2.5 µM | Proxy for plastic degradation ([3]; 70 °C, 40 h): 3 µM | Proxy for plastic degradation ([3]; 70 °C, 60 h): 2 µM | Proxy for plastic degradation ([6]; 30 °C): 0 µM

B3: unnamed (protein)
chain: MKIVKTLLTVIFSVLMVVSMAHAVQIGPNPTSTLLNGDGPFAVSSSSVSSLACGTGCAGGTVYYPTTAGQYGVIAVCPGYTGTSSSIAWFARRLATHGFVTIAMDTNSTLDYPSSRATQLAAALRYLINSSSSTIRSRIRTADRGVAGHSMGGGGTLIASADDSTLRVGIPMTPWNTYTSFSSVRVPQMIFGADGDTIASASSHARPFYNSITQAEKAYALLNDASHFTPNSTDQRIGRYGVAFAKRFVDGDTRYNPFLCGAEHTAYATSSRFDTYLSNCPY
Km [7]: 80 µM | kcat [7]: 447 s⁻¹ | kcat/Km [7]: 5.59e+06 M⁻¹ s⁻¹ | Melting temperature [8]: 82 °C | Proxy for plastic degradation ([9]; 50 °C, 0 h): 100% | Proxy for plastic degradation ([9]; 50 °C, 0.33 h): 54% | Proxy for plastic degradation ([9]; 50 °C, 0.5 h): 38% | Proxy for plastic degradation ([9]; 50 °C, 1 h): 49% | Proxy for plastic degradation ([9]; 50 °C, 2 h): 57% | Proxy for plastic degradation ([9]; 50 °C, 3 h): 46% | Proxy for plastic degradation ([9]; 50 °C, 6 h): 65% | Proxy for plastic degradation ([9]; 50 °C, 24 h): 52% | Proxy for plastic degradation ([9]; 50 °C, 48 h): 55% | Proxy for plastic degradation ([9]; 50 °C, 72 h): 43% | Proxy for plastic degradation ([9]; 50 °C, 96 h): 30% | Proxy for plastic degradation ([9]; 70 °C, 0 h): 100% | Proxy for plastic degradation ([9]; 70 °C, 0.33 h): 54% | Proxy for plastic degradation ([9]; 70 °C, 0.5 h): 51% | Proxy for plastic degradation ([9]; 70 °C, 2 h): 70% | Proxy for plastic degradation ([9]; 70 °C, 3 h): 51% | Proxy for plastic degradation ([9]; 70 °C, 6 h): 50% | Proxy for plastic degradation ([9]; 70 °C, 24 h): 52% | Proxy for plastic degradation ([9]; 70 °C, 48 h): 47% | Proxy for plastic degradation ([9]; 70 °C, 72 h): 20% | Proxy for plastic degradation ([9]; 70 °C, 96 h): 17% | Proxy for plastic degradation ([10]; 50 °C, 0 h): 100% | Proxy for plastic degradation ([10]; 50 °C, 0.33 h): 55% | Proxy for plastic degradation ([10]; 50 °C, 0.5 h): 38% | Proxy for plastic degradation ([10]; 50 °C, 1 h): 50% | Proxy for plastic degradation ([10]; 50 °C, 2 h): 60% | Proxy for plastic degradation ([10]; 50 °C, 4 h): 48% | Proxy for plastic degradation ([10]; 50 °C, 6 h): 65% | Proxy for plastic degradation ([10]; 50 °C, 24 h): 50% | Proxy for plastic degradation ([10]; 50 °C, 48 h): 52% | Proxy for plastic degradation ([10]; 50 °C, 72 h): 40% | Proxy for plastic degradation ([10]; 50 °C, 96 h): 35% | Proxy for plastic degradation ([10]; 70 °C, 0 h): 100% | Proxy for plastic degradation ([10]; 70 °C, 0.33 h): 55% | Proxy for plastic degradation ([10]; 70 °C, 0.5 h): 52% | Proxy for plastic degradation ([10]; 70 °C, 1 h): 50% | Proxy for plastic degradation ([10]; 70 °C, 2 h): 70% | Proxy for plastic degradation ([10]; 70 °C, 4 h): 50% | Proxy for plastic degradation ([10]; 70 °C, 6 h): 48% | Proxy for plastic degradation ([10]; 70 °C, 24 h): 50% | Proxy for plastic degradation ([10]; 70 °C, 48 h): 40% | Proxy for plastic degradation ([10]; 70 °C, 72 h): 20% | Proxy for plastic degradation ([10]; 70 °C, 96 h): 18% | Proxy for plastic degradation ([11]; pH 4): 0 U/mg | Proxy for plastic degradation ([11]; pH 5): 225 U/mg | Proxy for plastic degradation ([11]; pH 7): 200 U/mg | Proxy for plastic degradation ([11]; pH 7, 50 °C): 500 U/mg | Proxy for plastic degradation ([11]; pH 9): 150 U/mg | Proxy for plastic degradation ([11]; pH 10): 75 U/mg | Proxy for plastic degradation ([1]; 30 °C, 0 h): 0 µM | Proxy for plastic degradation ([1]; 50 °C, 0 h): 0 µM | Proxy for plastic degradation ([1]; 50 °C, 48 h): 140 µM | Proxy for plastic degradation ([1]; 50 °C, 96 h): 330 µM | Proxy for plastic degradation ([1]; 70 °C, 0 h): 0 µM | Proxy for plastic degradation ([1]; 70 °C, 24 h): 180 µM | Proxy for plastic degradation ([2]; 30 °C, 0 h): 0 µM | Proxy for plastic degradation ([2]; 50 °C, 0 h): 0 µM | Proxy for plastic degradation ([2]; 50 °C, 48 h): 10 µM | Proxy for plastic degradation ([2]; 70 °C, 0 h): 0 µM | Proxy for plastic degradation ([2]; 70 °C, 24 h): 5 µM | Proxy for plastic degradation ([2]; 70 °C, 48 h): 3 µM | Proxy for plastic degradation ([2]; 70 °C, 72 h): 2 µM | Proxy for plastic degradation ([3]; 30 °C, 0 h): 0 µM | Proxy for plastic degradation ([3]; 30 °C, 40 h): 4 µM | Proxy for plastic degradation ([3]; 30 °C, 60 h): 5 µM | Proxy for plastic degradation ([3]; 50 °C, 0 h): 0 µM | Proxy for plastic degradation ([3]; 70 °C, 0 h): 0 µM | Proxy for plastic degradation ([4]; 30 °C, 0 h): 0 µM | Proxy for plastic degradation ([4]; 30 °C, 24 h): 240 µM | Proxy for plastic degradation ([4]; 50 °C, 0 h): 0 µM | Proxy for plastic degradation ([4]; 70 °C, 0 h): 0 µM | Proxy for plastic degradation ([4]; 70 °C, 24 h): 180 µM | Proxy for plastic degradation ([5]; 30 °C, 0 h): 0 µM | Proxy for plastic degradation ([5]; 30 °C, 24 h): 320 µM | Proxy for plastic degradation ([5]; 30 °C, 48 h): 380 µM | Proxy for plastic degradation ([5]; 30 °C, 72 h): 390 µM | Proxy for plastic degradation ([5]; 30 °C, 96 h): 400 µM | Proxy for plastic degradation ([5]; 50 °C, 0 h): 0 µM | Proxy for plastic degradation ([5]; 50 °C, 24 h): 500 µM | Proxy for plastic degradation ([5]; 50 °C, 48 h): 620 µM | Proxy for plastic degradation ([5]; 50 °C, 72 h): 630 µM | Proxy for plastic degradation ([5]; 50 °C, 96 h): 700 µM | Proxy for plastic degradation ([5]; 70 °C, 0 h): 0 µM | Proxy for plastic degradation ([5]; 70 °C, 24 h): 370 µM | Proxy for plastic degradation ([5]; 70 °C, 48 h): 410 µM | Proxy for plastic degradation ([5]; 70 °C, 72 h): 405 µM | Proxy for plastic degradation ([5]; 70 °C, 96 h): 410 µM | Proxy for plastic degradation ([6]; 30 °C): 0 µM | Proxy for plastic degradation ([6]; 50 °C): 0 µM | Proxy for plastic degradation ([6]; 70 °C): 0 µM
